Experimental data: PMC10806181
Read-outs that look alike come from different tables or passages of the source.

How the values were obtained:
[1] = molecular target: Sho-Stl, enzymatically biotinylated on a C-terminal Avi-tag (Staphylococcus hominis); assay: BLI
[2] = molecular target: Stl master repressor of the Staphylococcus aureus SaPIbov1 pathogenicity island (Staphylococcus aureus (SaPIbov1)); assay: BLI; dimer to monomers; KDIM estimated by probing dimerization constants until the ka values of the two BLI set-ups (Stl or human dUTPase on the sensor) were close to equal
[3] = molecular target: Stl master repressor of the Staphylococcus aureus SaPIbov1 pathogenicity island (Staphylococcus aureus (SaPIbov1)); assay: BLI + other: steady state dUTPase activity assay; dimer to monomers; rough estimate of KDIM from the BLI KD and the remaining activity of 50 nM human dUTPase at 200 and 300 nM Stl, assuming no competition of substrate binding
[4] = molecular target: human dUTPase, enzymatically biotinylated on an N-terminal Avi-tag (human); assay: BLI
[5] = molecular target: Stl repressor of the Staphylococcus hominis ShoCI794_SEPI pathogenicity island (Staphylococcus hominis); assay: BLI + other: steady state dUTPase activity assay; dimer to monomers; rough estimate of KDIM from the BLI KD and the remaining activity of 50 nM human dUTPase at 200 and 300 nM Stl, assuming no competition of substrate binding
[6] = molecular target: Stl repressor of the Staphylococcus hominis ShoCI794_SEPI pathogenicity island (Staphylococcus hominis); assay: cross-linking; chemical crosslinking of Sho-Stl in solution (Fig. S1)
[7] = molecular target: Mycobacterium tuberculosis dUTPase, enzymatically biotinylated on an N-terminal Avi-tag (Mycobacterium tuberculosis) (UniProt P9WNS5); assay: BLI
[8] = molecular target: Stl repressor of the Staphylococcus hominis ShoCI794_SEPI pathogenicity island (Staphylococcus hominis); assay: SEC; gelfiltration of Sho-Stl (Fig. S1)
[9] = molecular target: Sa-Stl, enzymatically biotinylated on a C-terminal Avi-tag (Staphylococcus aureus (SaPIbov1)); assay: BLI
[10] = molecular target: Sho-Stl-NDY bound to the streptavidin sensor (Staphylococcus hominis); assay: BLI
[11] = molecular target: Sho-Stl, enzymatically biotinylated on a C-terminal Avi-tag (Staphylococcus hominis); assay: BLI; remark: listed apart in the source

Question: How did the Kd [1] turn out when “Mycobacterium tuberculosis dUTPase (from UniProt P9WNS5 1-154) (enzyme)” was run?
Answer: The Kd was 0.013 nM.

Question: What about the koff [1] of the same substance?
Answer: The koff was 2.9e-07 s⁻¹.

Question: What about the kon [1] of the same substance?
Answer: The kon was 22000 M⁻¹ s⁻¹.

Question: Which Kd [2] does the source give for “Stl master repressor of the Staphylococcus aureus SaPIbov1 pathogenicity island (natural protein)” here?
Answer: Its Kd is 0.12 nM.

Question: And the Kd [3]?
Answer: Its Kd is 0.001 nM.

Question: And the Kd [4]?
Answer: The Kd was 9.75 nM.

Question: And the koff [4]?
Answer: Its koff is 0.00065 s⁻¹.

Question: And the kon [4]?
Answer: Its kon is 67000 M⁻¹ s⁻¹.

Question: What does the source list for “Stl repressor of the Staphylococcus hominis ShoCI794_SEPI pathogenicity island (natural protein)”?
Answer: Kd [5]: 0.001 nM; stoichiometry N [6]: 2; Kd [7]: 35 nM; koff [7]: 0.00041 s⁻¹; kon [7]: 12000 M⁻¹ s⁻¹; steady state dUTPase enzyme activity of 50 nM human dUTPase at 200 nM and 300 nM Sho-Stl (remaining activity); Sho-Stl does not inhibit the human dUTPase (% remaining activity) (human dUTPase (human)): 100; stoichiometry N [8]: 2

Question: human dUTPase (enzyme) was tested. Which Kd [1] did it give?
Answer: The Kd was 4.54 nM.

Question: What about the koff [1] of the same substance?
Answer: The koff was 0.00023 s⁻¹.

Question: And the kon [1]?
Answer: Its kon is 52000 M⁻¹ s⁻¹.

Question: And the Kd [9]?
Answer: Its Kd is 0.18 nM.

Question: What about the koff [9] of the same substance?
Answer: The koff was 0.00027 s⁻¹.

Question: What about the kon [9] of the same substance?
Answer: The kon was 1.5e+06 M⁻¹ s⁻¹.

Question: What about the Kd [10] of the same substance?
Answer: Its Kd is 7.62 nM.

Question: What about the koff [10] of the same substance?
Answer: Its koff is 0.00024 s⁻¹.

Question: And the kon [10]?
Answer: Its kon is 31000 M⁻¹ s⁻¹.

Question: And the koff [11]?
Answer: Its koff is 0.00025 s⁻¹.
